The text below walks through data of the nanobody polyreactivity screen of Harvey et al. (2022).

The series in a line: yeast display, Sf9 membrane polyspecificity reagent, FACS + sequencing; frameworks hold sequencing errors. In short, it runs like this: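 Nanobodies came from a synthetic yeast display library in Saccharomyces cerevisiae BJ5465, induced with galactose for 36–48 hours and stained for 1 hour at 4 °C with 10% biotinylated, detergent-solubilized Sf9 membrane reagent. Cells were enriched on streptavidin microbeads and then FACS-sorted, with low and high (top ~1%) gates set on anti-HA fluorescence for expression and streptavidin fluorescence for reagent binding. Each polyreactivity label reflects the gate a clone came from. Genes were amplified by colony PCR, sequenced by MiSeq 2 × 250 and filtered by CDR length.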
“QFHLVESGGGLFQAGGSLRISCAASGRTLLVNAMGWYRQAPGKERELVAVITRGGSTNYADSVKGRFTISRDNAKNTVYLQMNSLKPEDTAVYYCAKQFSPYRSYGPVVRYDYWGQGTQVTVSS”: the “polyreactivity (PSR sort gate)” value is reported as “low polyreactivity”.

On to “QFQHVESGGCLDQAGRSLRLSSAASGYIFVNAMGWYRQPPGKEMELVAAISSGGSTHYADSVKGRFTISRDNAKYTVYLQMNSLKPEDTAVYYCAAGSFYYGIVQGWYDYWGQGTQVTVSS”, for which the “polyreactivity (PSR sort gate)” value is on record as “high polyreactivity”.

As to “QFQIVDSVGGLVQAGGSLRLSCAASGRTFSYYSLGWYREATGKERELVASIRKSGASTYYADSVKGRFTISRDNAKNTVYLQMNSLKPEDTAVYYCNTAGWSFYSGRYDYWGQGTQVTVSS”, the “polyreactivity (PSR sort gate)” value is “high polyreactivity”. Regarding “QFQLDESGGGLVQAGGSLRLSCAASGLTFSIYAMGWYRKARGKERELVAAITGRGGRTYYADSVKGRFTISRENAKNTVYLQMKSLKPEDTAFYYCADRYRGTDFDYWGQGTQVTVSS”, the “polyreactivity (PSR sort gate)” value is “high polyreactivity”. The same measure for “QFQLEESGGGLVQAGGSLRLSCAASGFIFTDNGMGRYRQATGKERELVAAINSDGSTYYADSVKGRFTISRDNAKNTVYLQMTSLIPEYTAVYYCAAGSFDRYFWYDYWGQGTQVTVSS”: “low polyreactivity”; for “QFQLEESGVGLVQAGGSLRLSCAASGFTFNVYAMGWYRQAPGKERELVAAIRWGAGSTYYADSVKGRFTISRDNAKNTVYLQMNSLKPEDTAVYYCAKDSGVWRYDHWGQGTQVTVSS”: “low polyreactivity”; for “QFQLLESGGGLVQAGGSLRLSCAASGSIFTRNAIGWYRQAPGSERELVAAITSAGSTSYADSVKGRFTISRDNAKNTVYLQMNSQKPEDTAVYYCNTVPGRYRTFDYWGQGTQVTVSS”: “high polyreactivity”. Under “QFQLLESGGGLVQAGGSLRLSCADSGSIYLYYARGWYRQAPGKESELVAAITYSGVSTYDAVSVKGRFTISRDTSNNTVYLQMNSLKPEDNAFYDCARRWNAFGSKGVYWGQGTQVTVSS” stands “high polyreactivity”. Under “QFQLLESGGGLVQAGSSLRLSCAASGSTFKYYTMGWYRQAPGKERELVATIRGAGTTYADSVKGRFTISRDNAKHTVYLQMNSLKPEDTAVYYCARLPRGDMDYWGQGTQVTVSS” stands “low polyreactivity”; under “QFQLQESCCGLVQAGGSLRLSCAASGTISYAPQMGWYRQAPGKERELVAGITIGGTTYYADSVKGRFTISRDNAKNTVYLQMNSLSPGDTAVYYCAAHSEQYTPFYYWGQGTQVTVSS”, “low polyreactivity”; under “QFQLVDSGGALVQAGGSLRLSCAASGFTFYPYAMGWYRQAPGKERELVAAISKRGGSTYYADSVKGRFTISRDHAKNTVYLQMNSLNPEDTAVYYCIAFFNGELYYWGQGTQVTVSS”, “high polyreactivity”. Consider “QFQLVESCAGLVQAGGSLRLSCADSGRIFRQYAMGWYIPAPGKERELVASITRNGGSTYYADSVKGRFTISRDNAKNTVYLQMNSQKPEDTAVYYCAKDVKGSYAYDSWGQGTQVTVSS”, for which the “polyreactivity (PSR sort gate)” value is on record as “high polyreactivity”. Under “QFQLVESGGGFVQAGGSLRLSCAASGRIFGPYAMGWYRQAPGKERELVAAISFSGSGTYYADSVKGRFTISRDNAKNTVYLQMNSLKPEDTAVYYCAATSRKIVAYDHDYWGQGTQVTVSS” stands “low polyreactivity”; under “QFQLVESGGGFVQAGGSLRLSCAASGYTFQRYAMGWYRQAPGKERELVATISKRGGSTYYADSVKGRFTISRDNAKNTDYLQMNSLKPEDTAVYYCNKLRGLHNGYDYWGQGTQVTVSS”, “high polyreactivity”; under “QFQLVESGGGLDQAGGSLRLSCAASGFTFQYYAMGWYRQAPGKERELVAAITRGDSTNYADSVKGRFTISRDNAKNTVYLQMNSLKPEDTAVYYCAAGSAPSYWGGWYYERDYWGQGTQVTVSS”, “low polyreactivity”.

Take “QFQLVESGGGLDQAGGSLRLSCAASGITFGNYAMGWYRQAPGKERELVAAITGSGGRTNYADSVKGRFTISRDNAKNTVYLQMNSLKPEDTAVYYCNRRQYGRKKQYDYWGQGTQVTVSS”: the “polyreactivity (PSR sort gate)” value is recorded as “high polyreactivity”. Under “QFQLVESGGGLDQAGGSLRLSCAASGLIFSTYSMGLYIQARGKETELVAAISGTGSTYYADSVKGRFTISRDNAKNTVYLQMNSLKPEDTAVYYCNADTYYAGRRYDYWGQGTQVTVSS” stands “low polyreactivity”. The same measure for “QFQLVESGGGLDQAGGSLRLSCAASGLIFYNYDMGWYRQAPGKERELVAAITLDGGITYYADSVKGRFTISRDNAKNTVYLQLNSLKPEDTAVYYCNRQYRLYGGYPSNLYEYWGQGTQVTVSS”: “high polyreactivity”; for “QFQLVESGGGLDQAVGSLRLSCAASGSIFYPNVMGGYREAPGKEREMVAAIRTSGGSTYYADSVQGRFTISRETAKNTVYLQMNSLKPEDTAVYYCAAKRTGNGYPRSGYYRYEYWGHGTQVTVSS”: “high polyreactivity”; for “QFQLVESGGGLVHAGGSLRLSCAASGITYWAYSMGWYRQARGKERELVAAIRFRGRTYYADSVKGRFTISRDNAKNSVYLQMNSLKAEDTAVYYFDADLSYWDDFEYWGQGNQVTVSS”: “low polyreactivity”.

For the sequence “QFQLVESGGGLVQAAGSLRLSCAASGSTFVSNAMGWYRQAPGKDRELVAAITRSGGSTRDADSVKGRLTISRDNAKNTGYLQMNSLKPEDTAVYYCAAPHKYYGLRYYYWGQGTQVTVSS”, the “polyreactivity (PSR sort gate)” value is “high polyreactivity”. Under “QFQLVESGGGLVQAGCSLRLSCAASGGTFGLYAMGWYRQAPGKERELVAANTWSDSSTYYADSVKGRFTISRDNAKNTVYLQMNSLKPEDNAVYYCAADYGDADTWWPSAEYHSGRDYWGQGTQVTVSS” stands “low polyreactivity”; under “QFQLVESGGGLVQAGCSLRLSCAASGLTVGSNTMGWDRQAPGKERELVAAITSNGGSTYYADSVKGRFTISRDNAKNTVYLQMNSLIPEDTAVYYCAADDRGLISRRGYFYLSYDYWGQGTQVTVSA”, “low polyreactivity”; under “QFQLVESGGGLVQAGGILRLSCAASGFTFRVNAMGWYRQAPGKERELVASITVSDGRTYYADSVKGRFTISRDNAKNTVYLQMNSLKPEDCAVYYCAADYKGAFTTDWSSEYEYWGQGTQVTVSS”, “low polyreactivity”. The same measure for “QFQLVESGGGLVQAGGSHRLSCAASGRIFSYYAMGWYRQAPGNERELVATITSGGNTNYADSVKGRFTISLDNAKNTVYLQMNSLKPEDTAVYYCKAAERQWYDAYDYWGQGTQVTVSS”: “low polyreactivity”; for “QFQLVESGGGLVQAGGSLLLSCAASGRTFDWYAMGWYRLAPGKERELVAGISGSSGRTYYADSVKGRFTISRDNAKNTVYLQMNSLKPEDTAVYYCAADFSFWKLVYYQSGRYDYWGQGTQVTVSS”: “high polyreactivity”; for “QFQLVESGGGLVQAGGSLRLICAASGFIFRTYAMGWYRQAPGKAREFVAAITFSAGSTYYADSVKGRFTISRDNAKNTVYLQMNSLLPEDSAVYDCNVLKSWYGYSVTGRYVYWGQGTQVTVSS”: “low polyreactivity”. The same measure for “QFQLVESGGGLVQAGGSLRLRCAPSGNTLIVKAMGWYRQAPGKEMELVAAITRDGRTNYADSVKGRFTISRDNAKNTVYLQMNSLKPEDTAVYYCAAEGVPDALDRDYWGQGTQVTVSS”: “low polyreactivity”; for “QFQLVESGGGLVQAGGSLRLSCAASGCTLQRNNRGWYRQAPGKDSEFVARISRRACSTYYADSVKGRITISRDNAKNTVYLQMNSLKPEDTAVYYCSTEDRGLTTRYPYDYWGQGTQVTVSS”: “high polyreactivity”.

Consider “QFQLVESGGGLVQAGGSLRLSCAASGFIFGLYAMGWYRQAPGKERELVAAISRSGGSTYYADSVKGRFTISRDNAKNTVYLQMNSLKPEDTAVYYCNARYSWPRANWYDYWGQGTQVTVSS”, for which the “polyreactivity (PSR sort gate)” value was “high polyreactivity”.
